Biological target: the molecule itself
Test: AUC

B1: Mdv1 CC^231–299 (domain or fragment, yeast)
chain: GPQTLVNSLEFLNIQKNSTLSEIRDIEVEVENLRQKKEKLLGKIANIEQNQLLLEDNLKQIDDRLDFLEEY
With B1 the “stoichiometry N” value was 1.95.
